B1: COX4I1 (parent)
chain: VAHVKHLSASQKALKEKEKASWSS
B2: FEM1A (parent)
chain: NIVEYLIQEQPGQEQVAGGEAQPG

Variants of: B1
Experiment: protein stability index of a GFP-peptide fusion (GPS, HEK-293T) (PSI 1-6); higher = more stable
Settings: c terminus: a fixed tail appended
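Also: lentivirally expressed fusions sorted by FACS into six bins by GFP to DsRed ratio, PSI derived from sequencing read proportions per bin multiplied by bin number.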

Variant | protein stability index
VAHVKHLSASQKALKEKEKASGSS | 5.03
VAHVKHLSASQKALKEKEKASHSS | 4.48
VAHVKHLSASQKALKEKEKASISS | 4.38
VAHVKHLSASQKALKEKEKASKSS | 4.78
VAHVKHLSASQKALKEKEKASLSS | 4.74
VAHVKHLSASQKALKEKEKASMSS | 4.88
VAHVKHLSASQKALKEKEKASNSS | 5.21
VAHVKHLSASQKALKEKEKASPSS | 5.12
VAHVKHLSASQKALKEKEKASQSS | 4.79
VAHVKHLSASQKALKEKEKASRSS | 4.58
VAHVKHLSASQKALKEKEKASSSS | 5.08
VAHVKHLSASQKALKEKEKASTSS | 4.96
VAHVKHLSASQKALKEKEKASVSS | 4.98
VAHVKHLSASQKALKEKEKASYSS | 4.29
VAHVKHLSASQKALKEKEKASWAS | 1.82
VAHVKHLSASQKALKEKEKASWCS | 2.22
VAHVKHLSASQKALKEKEKASWDS | 4.4
VAHVKHLSASQKALKEKEKASWES | 3.26
VAHVKHLSASQKALKEKEKASWFS | 3.65
VAHVKHLSASQKALKEKEKASWGS | 4.07
VAHVKHLSASQKALKEKEKASWHS | 3.68
VAHVKHLSASQKALKEKEKASWIS | 2.91
VAHVKHLSASQKALKEKEKASWKS | 3.74
VAHVKHLSASQKALKEKEKASWLS | 3.1
VAHVKHLSASQKALKEKEKASWMS | 3.77
VAHVKHLSASQKALKEKEKASWNS | 4

Variant | protein stability index
VAHVKHLSASQKALKEKEKASWPS | 4.06
VAHVKHLSASQKALKEKEKASWQS | 2.81
VAHVKHLSASQKALKEKEKASWRS | 3.22
VAHVKHLSASQKALKEKEKASWTS | 2.91
VAHVKHLSASQKALKEKEKASWVS | 2.61
VAHVKHLSASQKALKEKEKASWWS | 2.81
VAHVKHLSASQKALKEKEKASWYS | 3.41
VAHVKHLSASQKALKEKEKASWSA | 3.41
VAHVKHLSASQKALKEKEKASWSC | 3.31
VAHVKHLSASQKALKEKEKASWSD | 2.98
VAHVKHLSASQKALKEKEKASWSE | 2.81
VAHVKHLSASQKALKEKEKASWSF | 3.33
VAHVKHLSASQKALKEKEKASWSG | 3.62
VAHVKHLSASQKALKEKEKASWSH | 3.45
VAHVKHLSASQKALKEKEKASWSI | 3.56
VAHVKHLSASQKALKEKEKASWSK | 4.25
VAHVKHLSASQKALKEKEKASWSL | 3.41
VAHVKHLSASQKALKEKEKASWSM | 3.17
VAHVKHLSASQKALKEKEKASWSN | 3.76
VAHVKHLSASQKALKEKEKASWSP | 4.36
VAHVKHLSASQKALKEKEKASWSQ | 3.94
VAHVKHLSASQKALKEKEKASWSR | 3.38
VAHVKHLSASQKALKEKEKASWST | 3.57
VAHVKHLSASQKALKEKEKASWSV | 3.15
VAHVKHLSASQKALKEKEKASWSW | 2.95
VAHVKHLSASQKALKEKEKASWSY | 3.13

Variants of: B2
Experiment: as above
Settings: c terminus: a fixed tail appended

Variant | protein stability index
AIVEYLIQEQPGQEQVAGGEAQPG | 2.91
CIVEYLIQEQPGQEQVAGGEAQPG | 2.79
DIVEYLIQEQPGQEQVAGGEAQPG | 3.66
EIVEYLIQEQPGQEQVAGGEAQPG | 3.85
FIVEYLIQEQPGQEQVAGGEAQPG | 2.54
GIVEYLIQEQPGQEQVAGGEAQPG | 4.34
HIVEYLIQEQPGQEQVAGGEAQPG | 3.76
IIVEYLIQEQPGQEQVAGGEAQPG | 3.26
KIVEYLIQEQPGQEQVAGGEAQPG | 3.36
LIVEYLIQEQPGQEQVAGGEAQPG | 1.85
MIVEYLIQEQPGQEQVAGGEAQPG | 2.16
PIVEYLIQEQPGQEQVAGGEAQPG | 5.17
QIVEYLIQEQPGQEQVAGGEAQPG | 3.89
RIVEYLIQEQPGQEQVAGGEAQPG | 3.19
SIVEYLIQEQPGQEQVAGGEAQPG | 3.7
TIVEYLIQEQPGQEQVAGGEAQPG | 2.92
VIVEYLIQEQPGQEQVAGGEAQPG | 2.76
WIVEYLIQEQPGQEQVAGGEAQPG | 2.71
YIVEYLIQEQPGQEQVAGGEAQPG | 2.52
NAVEYLIQEQPGQEQVAGGEAQPG | 5.21
NCVEYLIQEQPGQEQVAGGEAQPG | 5.17

Variant | protein stability index
NDVEYLIQEQPGQEQVAGGEAQPG | 5.12
NEVEYLIQEQPGQEQVAGGEAQPG | 5.63
NFVEYLIQEQPGQEQVAGGEAQPG | 4.24
NGVEYLIQEQPGQEQVAGGEAQPG | 5.39
NHVEYLIQEQPGQEQVAGGEAQPG | 5.49
NKVEYLIQEQPGQEQVAGGEAQPG | 5.27
NLVEYLIQEQPGQEQVAGGEAQPG | 4.29
NMVEYLIQEQPGQEQVAGGEAQPG | 4.15
NNVEYLIQEQPGQEQVAGGEAQPG | 5.41
NPVEYLIQEQPGQEQVAGGEAQPG | 5.54
NQVEYLIQEQPGQEQVAGGEAQPG | 5.6
NRVEYLIQEQPGQEQVAGGEAQPG | 5.59
NSVEYLIQEQPGQEQVAGGEAQPG | 5.54
NTVEYLIQEQPGQEQVAGGEAQPG | 5.57
NVVEYLIQEQPGQEQVAGGEAQPG | 5.13
NWVEYLIQEQPGQEQVAGGEAQPG | 2.59
NYVEYLIQEQPGQEQVAGGEAQPG | 4.59
NIAEYLIQEQPGQEQVAGGEAQPG | 5.13
NICEYLIQEQPGQEQVAGGEAQPG | 5.04
NIDEYLIQEQPGQEQVAGGEAQPG | 5.67
NIEEYLIQEQPGQEQVAGGEAQPG | 5.36
